Values of other authors in article PMC6535718.

Molecular target: Bfd (Pseudomonas aeruginosa) (UniProt Q9HY80)
Sequence (Q9HY80 whole entry): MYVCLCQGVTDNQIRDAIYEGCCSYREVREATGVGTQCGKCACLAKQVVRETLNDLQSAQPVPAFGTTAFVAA

BfrB, sequence (Q9HY79 whole entry): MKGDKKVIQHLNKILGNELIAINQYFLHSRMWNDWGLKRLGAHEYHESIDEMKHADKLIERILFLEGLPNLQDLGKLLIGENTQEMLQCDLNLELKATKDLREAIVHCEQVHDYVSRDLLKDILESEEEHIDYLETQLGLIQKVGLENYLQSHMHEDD

## BfrB (from UniProt Q9HY79)
  Kd: 3.4 µM
